In paper PMC9054013, “FCHO controls AP2’s initiating role in endocytosis through a PtdIns(4,5)P2-dependent switch” (Science Advances, 2022):
Where “and” joins values, the source holds several entries; their conditions need not be identical. Equal values may be shown once. Each block holds one molecule with its values, some of them ahead of it.

How the values were obtained:
AP2 core [1] = experiment: BLI of AP2 core binding to immobilized GST-FCHO linkers; details: BLI equilibrium analysis, GST-linker on anti-GST biosensors, 25°C, near-physiological conditions, AP2 core closed
Experimental: Real-time kinetic measurements of AP2 core binding to immobilized GST-FCHO1 linker and GST-FCHO2 linker at 25°C were conducted using an Octet RED96 (Pall FortéBio). AP2 concentrations varied by twofold dilution series (13.5 to 0.8 and 10.0 to 0.2 μM, respectively). Samples and buffers were dispensed into 96-well microtiter plates (Greiner) at a volume of 200 μl per well. Anti-GST biosensors (Pall FortéBio) were incubated in the specific assay buffer for at least 30 min before loading with the appropriate GST-FCHO linker for 5 min, followed by blocking with GST-ARRS control for 10 min. Negative controls were analyzed with biosensors uniquely loaded with the GST-ARRS control. Every binding experiment consisted of three steps: incubation for 10 min in the specific assay buffer, followed by 15 min of incubation with AP2 in the same buffer (association phase), and then by 10 min of incubation with the same buffer without AP2 to measure AP2 off rate (dissociation phase). […]
Data were processed with the Octet Data Acquisition 7.0 software, individually fitted using ForteBio Analysis software 7.0, and subsequently further analyzed with the PRISM software (GraphPad) to determine equilibrium dissociation constants (KD). The maximum binding capacity of each biosensor was scaled with respect to each other, according to the molecular weight of the AP2 analyzed.

AP2 core [2] = experiment: Liposome spin-downs / GSH Sepharose pull-down of AP2 core with GST-FCHO2 linker; format: biochemical; details: for increase in steady-state efficiency of AP2 membrane recruitment: GST-FCHO2 vs GST-ARRS control, densitometry, 3 independent experiments
Experimental: GST-FCHO2 WT linker or a nonbinding control (GST-ARRS control) at a final concentration of 30 μM was incubated at 4°C for 30 min with AP2 core at a concentration of 2.5 μM, in 95% HKT buffer with lysozyme (0.2 mg/ml) as a “carrier,” AEBSF (25 μg/ml), and 5 mM DTT. Core buffer (contributed by the purified AP2) was restricted to 5% of the volume. The mixture was then centrifuged briefly to remove any insoluble material. Samples were removed and added to either an equal volume of liposomes [containing phosphatidylcholine (PC)/phosphatidylethanolamine (PE), PC/PE/PS/PtdIns(4,5)P2, or PC/PE/PS/ PtdIns(4,5)P2/TGN38] or an equal bed volume of GSH Sepharose beads prewashed into HKT buffer. Final concentrations were therefore 15 μM (GST-FCHO2/ARRS) and 1.25 μM AP2. The mixtures were incubated for 30 min at 21°C with continuous gentle inversion, then the liposomes were pelleted by centrifugation, supernatants were removed, and the pellets resuspended in an equal volume before the addition of SDS loading dye and analysis by SDS-PAGE. The GSH Sepharose beads were washed three times with 1 ml of HKT supplemented with lysozyme (0.2 mg/ml), AEBSF (25 μg/ml), and 5 mM DTT, then resuspended in the same buffer, and analyzed by SDS-PAGE. All experiments were done in triplicate.

Kd (AP2 core [1]): ~10 µM and 9.8 µM
B1: FCHO2 linker: FCHO2 interdomain linker wt, residues 314 to 444, GST fusion (protein)
chain: NIPDVDEEGYSIKPETNQNDTKENHFYSSSDSDSEDEEPKKYRIEIKPMHPNNSHHTMASLDELKVSIGNITLSPAISRHSPVQMNRNLSNEELTKSKPSAPPNEKGTSDLLAWDPLFGPSLDSSSSSSLT
modifications: left off: GST, end not stated, kept
notes: FCHO2 interdomain linker wt, residues 314 to 444, GST fusion
ratio of FCHO2:AP2 on beads relative to PtdIns(4,5)P2-containing liposomes (AP2 core [2]; GST-FCHO2 linker 15 μM, AP2 core 1.25 μM, three independent experiments): ~ 20 fold | increase in steady-state efficiency of AP2 membrane recruitment (AP2 core [2]; PtdIns(4,5)P2-only liposomes): ~ 13% | increase in steady-state efficiency of AP2 membrane recruitment (AP2 core [2]; liposomes containing both PtdIns(4,5)P2 and cargo): ~ 22%

Kd (AP2 core [1]): ~10 µM and 8.5 µM
B2: FCHO1 linker: FCHO1 interdomain linker wt (N123C), residues 316 to 444, GST fusion (protein)
chain: TCPEVDEEGFTVRPDVTQNSTAEPSRFSSSDSDFDDEEPRKFYVHIKPAPARAPACSPEAAAAQLRATAGSLILPPGPGGTMKRHSSRDAAGKPQRPRSAPRTSSCAERLQSEEQVSKNLFGPPLESAF
modifications: left off: GST, end not stated, kept
notes: FCHO1 interdomain linker wt (N123C), residues 316 to 444, GST fusion
